Results: USRE47223 (Genentech, dated 2019)

T1: 5-domain TAT10772 (human)
T1 construct: Recombinant portion of the extracellular domain, expressed in CHO cells; also called 5-mucin domain
T1 chain: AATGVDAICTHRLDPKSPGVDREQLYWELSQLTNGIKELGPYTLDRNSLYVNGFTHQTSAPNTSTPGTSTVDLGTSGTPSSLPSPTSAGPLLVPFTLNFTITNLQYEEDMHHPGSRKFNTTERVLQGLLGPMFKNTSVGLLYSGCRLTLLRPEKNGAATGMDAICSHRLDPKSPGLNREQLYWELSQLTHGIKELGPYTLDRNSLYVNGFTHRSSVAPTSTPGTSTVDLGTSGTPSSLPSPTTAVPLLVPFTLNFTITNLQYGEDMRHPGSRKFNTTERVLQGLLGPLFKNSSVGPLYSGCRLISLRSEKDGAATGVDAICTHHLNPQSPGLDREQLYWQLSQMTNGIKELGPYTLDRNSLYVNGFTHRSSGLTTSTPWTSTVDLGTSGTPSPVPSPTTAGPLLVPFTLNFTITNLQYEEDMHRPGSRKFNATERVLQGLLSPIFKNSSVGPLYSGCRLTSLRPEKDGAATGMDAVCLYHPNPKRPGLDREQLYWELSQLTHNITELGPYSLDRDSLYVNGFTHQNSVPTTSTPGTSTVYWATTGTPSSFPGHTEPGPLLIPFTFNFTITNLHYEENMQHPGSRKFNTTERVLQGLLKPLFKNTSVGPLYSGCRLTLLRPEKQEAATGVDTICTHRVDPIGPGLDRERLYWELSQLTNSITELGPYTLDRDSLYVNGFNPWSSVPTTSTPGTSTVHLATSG


Tests used:
[1] = biological target: T1, 5-domain TAT10772; assay: ELISA, IgG, 5′-domain TAT10772
[2] = biological target: T2, CA125, human TAT10772 shed antigen (human, UniProt Q8WXI7 1-14451, limits assumed); assay: ELISA, IgG, CA125
T2 construct: domain: entire shed antigen; Bought reagent; also called CA125 polypeptide

[3] = biological target: T3, TAT10772 polypeptide (human); assay: ELISA on OVCAR-3 cells, IgG
T3 construct: Cell-surface TAT10772 on engineered PC3 cells (PC3/A5.3B2), OVCAR-3, OVCA-432, SK-OV-3 cells and tumor tissue; also called TAT10772 target polypeptide

[4] = biological target: T1, 5-domain TAT10772; assay: Biacore SPR, 5′-domain TAT10772 over immobilized IgG
[5] = biological target: T3, TAT10772 polypeptide; assay: Scatchard analysis, IgG
[6] = biological target: T3, TAT10772 polypeptide; assay: Scatchard analysis, IgG; form of TAT10772 not stated
[7] = biological target: T3, TAT10772 polypeptide; assay: Western blot, ELISA, FACS of TAT10772-expressing cells and/or immunohistochemistry

Kd [1]	Kd [2]	Kd [3]	Kd [4]	koff [4]	kon [4]	binding result [5]	Kd [6]	binding result [7]	Binder
3 nM	0.6 nM	0.5 nM	4.8 nM	0.000178 s⁻¹	36900 M⁻¹ s⁻¹	–	–	–	3A5v1 (SEQ ID NO: 198) (antibody, V domains shown, Humanized IgG) VH: EVQLVESGGGLVQPGGSLRLSCAASGYSITNDYAWNWVRQAPGKGLEWVGYINYSGYTTYNPSLKSRFTISRDTSKNTLYLQMNSLRAEDTAVYYCARWASGLDYWGQGTLVTVSS VL: DIQMTQSPSSLSASVGDRVTITCKASDLIHNWLAWYQQKPGKAPKLLIYGATSLETGVPSRFSGSGSGTDFTLTISSLQPEDFATYYCQQYWTTPFTFGQGTKVEIKR
5.7 nM	4.4 nM	0.6 nM	–	–	–	–	–	–	3A5v6 (SEQ ID NO: 203) (antibody, V domains shown, Humanized IgG) VH: EVQLVESGGGLVQPGGSLRLSCAASGYSITNDYAWNWVRQAPGKGLEWVGYINYSGYTTYNPSLKSRFTISRDTSKNTFYLQMNSLRAEDTAVYYCARWDSGLTYWGQGTLVTVSS VL: DIQMTQSPSSLSASVGDRVTITCKASDLIHNWLAWYQQKPGKAPKLLIYGATSLETGVPSRFSGSGSGTDFTLTISSLQPEDFATYYCQQYWTTPFTFGQGTKVEIKR
–	–	–	–	–	–	binds	–	–	3A5v4b.54 (SEQ ID NO:209) (antibody, V domains shown) VH: EVQLVESGGGLVQPGGSLRLSCAASGYSITNDYAWNWVRQAPGKGLEWVGYINYAGYTTYNPSLKSRFTISRDTSKNTLYLQMNSLRAEDTAVYYCARWTSGLDYWGQGTLVTVSS VL: DIQMTQSPSSLSASVGDRVTITCKASDLIHNWLAWYQQKPGKAPKLLIYGATSLETGVPSRFSGSGSGTDFTLTISSLQPEDFATYYCQQYWTTPFTFGQGTKVEIKR
90.3 nM	51.4 nM	0.6 nM	10 nM	0.000292 s⁻¹	28500 M⁻¹ s⁻¹	–	–	–	3A5.F-graft (SEQ ID NO: 13), IgG (antibody, V domains shown, IgG) VH: EVQLVESGGGLVQPGGSLRLSCAASGYSITNDYAWNWVRQAPGKGLEWVGYINYSGYTTYNPSLKSRFTISRDNSKNTFYLQMNSLRAEDTAVYYCARWDGGLTYWGQGTLVTVSS VL: DIQMTQSPSSLSASVGDRVTITCKASDLIHNWLAWYQQKPGKAPKLLIYGATSLETGVPSRFSGSGSGTDFTLTISSLQPEDFATYYCQQYWTTPFTFGQGTKVEIKR
10.2 nM	8.2 nM	0.6 nM	–	–	–	–	–	–	3A5v5 (SEQ ID NO: 202) (antibody, V domains shown, Humanized IgG) VH: EVQLVESGGGLVQPGGSLRLSCAASGYSITNDYAWNWVRQAPGKGLEWVGYINYSGYTTYNPSLKSRFTISRDTSKNTFYLQMNSLRAEDTAVYYCARWDAGLTYWGQGTLVTVSS VL: DIQMTQSPSSLSASVGDRVTITCKASDLIHNWLAWYQQKPGKAPKLLIYGATSLETGVPSRFSGSGSGTDFTLTISSLQPEDFATYYCQQYWTTPFTFGQGTKVEIKR
–	–	–	–	–	–	–	0.47 nM	–	3A5v1b 52 (SEQ ID NO: 206) (antibody, V domains shown, Humanized IgG, 3A5.v1 with the CDR-H2 glycosylation site removed at position 52) VH: EVQLVESGGGLVQPGGSLRLSCAASGYSITNDYAWNWVRQAPGKGLEWVGYISYSGYTTYNPSLKSRFTISRDTSKNTLYLQMNSLRAEDTAVYYCARWASGLDYWGQGTLVTVSS VL: DIQMTQSPSSLSASVGDRVTITCKASDLIHNWLAWYQQKPGKAPKLLIYGATSLETGVPSRFSGSGSGTDFTLTISSLQPEDFATYYCQQYWTTPFTFGQGTKVEIKR
3.3 nM	1.2 nM	0.8 nM	–	–	–	–	–	–	3A5v7 (SEQ ID NO: 204) (antibody, V domains shown, Humanized IgG) VH: EVQLVESGGGLVQPGGSLRLSCAASGYSITNDYAWNWVRQAPGKGLEWVGYINYSGYTTYNPSLKSRFTISRDTSKNTLYLQMNSLRAEDTAVYYCARWKSGLDSWGQGTLVTVSS VL: DIQMTQSPSSLSASVGDRVTITCKASDLIHNWLAWYQQKPGKAPKLLIYGATSLETGVPSRFSGSGSGTDFTLTISSLQPEDFATYYCQQYWTTPFTFGQGTKVEIKR
–	–	–	–	–	–	–	0.46 nM	–	3A5v4b 52 (SEQ ID NO: 208) (antibody, V domains shown, Humanized IgG, 3A5.v4 with the CDR-H2 glycosylation site removed at position 52) VH: EVQLVESGGGLVQPGGSLRLSCAASGYSITNDYAWNWVRQAPGKGLEWVGYISYSGYTTYNPSLKSRFTISRDTSKNTLYLQMNSLRAEDTAVYYCARWTSGLDYWGQGTLVTVSS VL: DIQMTQSPSSLSASVGDRVTITCKASDLIHNWLAWYQQKPGKAPKLLIYGATSLETGVPSRFSGSGSGTDFTLTISSLQPEDFATYYCQQYWTTPFTFGQGTKVEIKR
2.6 nM	0.4 nM	0.5 nM	2.3 nM	0.000127 s⁻¹	55100 M⁻¹ s⁻¹	–	–	–	3A5v8 (SEQ ID NO: 205) (antibody, V domains shown, Humanized IgG) VH: EVQLVESGGGLVQPGGSLRLSCAASGYSITNDYAWNWVRQAPGKGLEWVGYINYSGYTTYNPSLKSRFTISRDTSKNTLYLQMNSLRAEDTAVYYCARWTSGLDSWGQGTLVTVSS VL: DIQMTQSPSSLSASVGDRVTITCKASDLIHNWLAWYQQKPGKAPKLLIYGATSLETGVPSRFSGSGSGTDFTLTISSLQPEDFATYYCQQYWTTPFTFGQGTKVEIKR
–	–	–	–	–	–	–	0.37 nM	–	3A5v1b 54 (SEQ ID NO: 207) (antibody, V domains shown, Humanized IgG, 3A5.v1 with the CDR-H2 glycosylation site removed at position 54) VH: EVQLVESGGGLVQPGGSLRLSCAASGYSITNDYAWNWVRQAPGKGLEWVGYINYAGYTTYNPSLKSRFTISRDTSKNTLYLQMNSLRAEDTAVYYCARWASGLDYWGQGTLVTVSS VL: DIQMTQSPSSLSASVGDRVTITCKASDLIHNWLAWYQQKPGKAPKLLIYGATSLETGVPSRFSGSGSGTDFTLTISSLQPEDFATYYCQQYWTTPFTFGQGTKVEIKR
3.7 nM	0.8 nM	0.7 nM	3.6 nM	0.000121 s⁻¹	33400 M⁻¹ s⁻¹	–	–	–	3A5v2 (SEQ ID NO: 199) (antibody, V domains shown, Humanized IgG) VH: EVQLVESGGGLVQPGGSLRLSCAASGYSITNDYAWNWVRQAPGKGLEWVGYINYSGYTTYNPSLKSRFTISRDTSKNTFYLQMNSLRAEDTAVYYCARWASGLSHWGQGTLVTVSS VL: DIQMTQSPSSLSASVGDRVTITCKASDLIHNWLAWYQQKPGKAPKLLIYGATSLETGVPSRFSGSGSGTDFTLTISSLQPEDFATYYCQQYWTTPFTFGQGTKVEIKR
–	–	7.1 nM	–	–	–	–	–	–	3A5.L-graft (SEQ ID NO: 12), IgG (antibody, V domains shown, IgG) VH: EVQLVESGGGLVQPGGSLRLSCAASGYSITNDYAWNWVRQAPGKGLEWVGYINYSGYTTYNPSLKSRFTISRDNSKNTLYLQMNSLRAEDTAVYYCARWDGGLTYWGQGTLVTVSS VL: DIQMTQSPSSLSASVGDRVTITCKASDLIHNWLAWYQQKPGKAPKLLIYGATSLETGVPSRFSGSGSGTDFTLTISSLQPEDFATYYCQQYWTTPFTFGQGTKVEIKR
2.4 nM	0.3 nM	0.8 nM	–	–	–	–	–	–	3A5v4 (SEQ ID NO: 201) (antibody, V domains shown, Humanized IgG) VH: EVQLVESGGGLVQPGGSLRLSCAASGYSITNDYAWNWVRQAPGKGLEWVGYINYSGYTTYNPSLKSRFTISRDTSKNTLYLQMNSLRAEDTAVYYCARWTSGLDYWGQGTLVTVSS VL: DIQMTQSPSSLSASVGDRVTITCKASDLIHNWLAWYQQKPGKAPKLLIYGATSLETGVPSRFSGSGSGTDFTLTISSLQPEDFATYYCQQYWTTPFTFGQGTKVEIKR
1.6 nM	0.5 nM	0.2 nM	3.6 nM	0.00013 s⁻¹	36200 M⁻¹ s⁻¹	–	–	–	3A5v3 (SEQ ID NO: 200) (antibody, V domains shown, Humanized IgG) VH: EVQLVESGGGLVQPGGSLRLSCAASGYSITNDYAWNWVRQAPGKGLEWVGYINYSGYTTYNPSLKSRFTISRDTSKNTFYLQMNSLRAEDTAVYYCARWASGLSYWGQGTLVTVSS VL: DIQMTQSPSSLSASVGDRVTITCKASDLIHNWLAWYQQKPGKAPKLLIYGATSLETGVPSRFSGSGSGTDFTLTISSLQPEDFATYYCQQYWTTPFTFGQGTKVEIKR
–	–	–	–	–	–	–	–	binds	murine 3A5 anti-TAT10772 antibody (antibody, V domains shown, Murine monoclonal antibody from hybridoma; also called monoclonal antibody 3A5; monoclonal antibody 3A5.3) VH: DVQLQESGPGLVNPSQSLSLTCTVTGYSITNDYAWNWIRQFPGNKLEWMGYINYSGYTTYNPSLKSRISITRDTSKNQFFLHLNSVTTEDTATYYCARWDGGLTYWGQGTLVTVSA VL: DIQMTQSSSFLSVSLGGRVTITCKASDLIHNWLAWYQQKPGNAPRLLISGATSLETGVPSRFSGSGSGNDYTLSIASLQTEDAATYYCQQYWTTPFTFGSGTKLEIK
2.3 nM	0.3 nM	0.3 nM	2.7 nM	0.000121 s⁻¹	44800 M⁻¹ s⁻¹	–	0.57 nM	–	3A5 chimera (mu3A5-H; SEQ ID NO: 11) (antibody, V domains shown, IgG; also called chimeric 3A5; chimeric antibody) VH: DVQLQESGPGLVNPSQSLSLTCTVTGYSITNDYAWNWIRQFPGNKLEWMGYINYSGYTTYNPSLKSRISITRDTSKNQFFLHLNSVTTEDTATYYCARWDGGLTYWGQGTLVTVSA VL: DIQMTQSPSSLSASVGDRVTITCKASDLIHNWLAWYQQKPGKAPKLLIYGATSLETGVPSRFSGSGSGTDFTLTISSLQPEDFATYYCQQYWTTPFTFGQGTKVEIKR
